Molecular target: T1, T Cell Immunoglobulin and Mucin Domain-3 (TIM-3) on circulating CD14+ monocytes of patients (human, UniProt Q8TDQ0 22-301)
T1 construct: whole, on cells; Endogenous receptor on peripheral blood monocytes of patients in a first-in-human study; also called HAVCR2; TIM-3 receptor
Assay: flow cytometry receptor occupancy on circulating monocytes, whole blood of treated patients
Protocol: To measure binding in the RO assay, whole blood was collected from patients at baseline (Day 1 predose), 48 hours following the first dose (Day 3) and prior to the second dose (Day 15 predose) for the Q2W schedule. […] Samples for occupancy measurement on the Q3W schedule were collected as follows: Day 1 predose, Day 5, Day 15 and Day 22.
All samples were pre-dose, with occupancy measured after a single dose on day 1. The occupancy ratio (free TIM-3:total TIM-3) is determined at various time points (for example, timepoints can include day 1, day 3, day 15, day 22, and day 29).

binding result: binds
B1: TSR-022 (antibody, human IgG4 S228P, kappa, V domains shown)
VH: EVQLLESGGGLVQPGGSLRLSCAAASGFTFSSYDMSWVRQAPGKGLDWVSTISGGGTYTYYQDSVKGRFTISRDNSKNTLYLQMNSLRAEDTAVYYCASMDYWGQGTTVTVSS
VL: DIQMTQSPSSLSASVGDRVTITCRASQSIRRYLNWYHQKPGKAPKLLIYGASTLQSGVPSRFSGSGSGTDFTLTISSLQPEDFAVYYCQQSHSAPLTFGGGTKVEIKR
notes: Humanized IgG4 (human IGHG4*01 scaffold) with a kappa light chain (IGKC*01); also called anti-TIM-3 antibody; exemplary anti-TIM-3 antibody

— patent US20190322746A1 (TESARO, published 2019)
